The target of one assay is T1, O10.
T1 chain: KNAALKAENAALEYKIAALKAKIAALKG
Put plainly: two-hybrid library CC0.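 Further: natural log of median RNA to DNA barcode read ratio; higher means stronger binding.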 The settings on record: mean of both orientations.

The target in another assay is T2, O11.
T2 chain: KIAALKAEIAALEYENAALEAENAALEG
Put plainly: two-hybrid library CC0.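 Further: natural log of median RNA to DNA barcode read ratio; higher means stronger binding.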 The settings on record: mean of both orientations.

A further assay concerns the target T3, O12.
T3 chain: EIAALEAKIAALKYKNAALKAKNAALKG
Briefly: two-hybrid library CC0.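 Further: natural log of median RNA to DNA barcode read ratio; higher means stronger binding.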 To be noted: mean of both orientations.

The target in another assay is T4, O13.
T4 chain: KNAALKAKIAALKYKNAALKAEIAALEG
Briefly: two-hybrid library CC0.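 Further: natural log of median RNA to DNA barcode read ratio; higher means stronger binding.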 The settings on record: mean of both orientations.

A further assay deals with T5, O14.
T5 chain: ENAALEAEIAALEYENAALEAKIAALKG
Briefly: two-hybrid library CC0. To be noted: mean of both orientations.

A further assay deals with T6, O15.
T6 chain: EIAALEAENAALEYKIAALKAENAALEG
Put plainly: two-hybrid library CC0. To be noted: mean of both orientations.

The next assay concerns the target T7, O16.
T7 chain: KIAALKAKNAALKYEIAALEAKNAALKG
Put plainly: two-hybrid library CC0. To be noted: mean of both orientations.

Another assay addresses T8, O2.
T8 chain: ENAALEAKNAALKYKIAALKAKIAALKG
Put plainly: two-hybrid library CC0. To be noted: mean of both orientations.

The target in another assay is T9, O3.
T9 chain: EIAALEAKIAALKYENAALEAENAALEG
Put plainly: two-hybrid library CC0. The settings on record: mean of both orientations.

For another assay, the target named is T10, O4.
T10 chain: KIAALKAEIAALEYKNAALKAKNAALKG
Put plainly: two-hybrid library CC0. The settings on record: mean of both orientations.

For a further assay, the target named is T11, O5.
T11 chain: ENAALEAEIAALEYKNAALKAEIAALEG
Put plainly: two-hybrid library CC0. To be noted: mean of both orientations.

The target of the next assay is T12, O6.
T12 chain: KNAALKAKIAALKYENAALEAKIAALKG
Put plainly: two-hybrid library CC0. The settings on record: mean of both orientations.

The next assay has as its target T13, O7.
T13 chain: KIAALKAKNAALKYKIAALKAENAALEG
Briefly: two-hybrid library CC0. To be noted: mean of both orientations.

In the next assay the target is T14, O8.
T14 chain: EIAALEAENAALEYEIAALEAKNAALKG
Put plainly: two-hybrid library CC0. To be noted: mean of both orientations.

A further assay concerns the target T15, O9.
T15 chain: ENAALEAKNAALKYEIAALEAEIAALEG
Briefly: two-hybrid library CC0. To be noted: mean of both orientations.

Another assay has as its target T16, 4H121-AA.
T16 chain: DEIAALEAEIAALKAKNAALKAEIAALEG
Put plainly: two-hybrid library CCmax.

A further assay has as its target T17, 4H1350-AA.
T17 chain: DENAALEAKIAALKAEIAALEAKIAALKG
Briefly: two-hybrid library CCmax. To be noted: mean of both orientations.

The target in a further assay is T18, 4H1710-AA.
T18 chain: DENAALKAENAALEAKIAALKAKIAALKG
Put plainly: two-hybrid library CCmax. The settings on record: mean of both orientations.

Another assay has as its target T19, 4H1985-AA.
T19 chain: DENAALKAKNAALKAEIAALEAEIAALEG
Put plainly: two-hybrid library CCmax. The settings on record: mean of both orientations.

A further assay concerns the target T20, 4H2187-AA.
T20 chain: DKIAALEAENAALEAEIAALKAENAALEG
Put plainly: two-hybrid library CCmax. To be noted: mean of both orientations.

Another assay addresses T21, 4H233-AA.
T21 chain: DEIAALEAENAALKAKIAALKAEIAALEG
Briefly: two-hybrid library CCmax. The settings on record: mean of both orientations.

Another assay concerns the target T22, 4H2512-AA.
T22 chain: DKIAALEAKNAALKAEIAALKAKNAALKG
Put plainly: two-hybrid library CCmax. To be noted: mean of both orientations.

The target of another assay is T23, 4H2646-AA.
T23 chain: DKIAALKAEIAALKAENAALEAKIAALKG
Briefly: two-hybrid library CCmax. The settings on record: mean of both orientations.

The next assay concerns the target T24, 4H2687-AA.
T24 chain: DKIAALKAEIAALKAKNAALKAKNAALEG
Put plainly: two-hybrid library CCmax. The settings on record: mean of both orientations.

A further assay addresses T25, 4H2705-AA.
T25 chain: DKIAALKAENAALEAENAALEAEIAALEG
Put plainly: two-hybrid library CCmax. To be noted: mean of both orientations.

The target of the next assay is T26, 4H2758-AA.
T26 chain: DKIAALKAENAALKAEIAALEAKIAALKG
Briefly: two-hybrid library CCmax. To be noted: mean of both orientations.

The next assay concerns the target T27, 4H278-AA.
T27 chain: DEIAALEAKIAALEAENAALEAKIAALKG
Put plainly: two-hybrid library CCmax. To be noted: mean of both orientations.

The target in a further assay is T28, 4H2873-AA.
T28 chain: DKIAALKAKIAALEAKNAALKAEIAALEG
Briefly: two-hybrid library CCmax. The settings on record: mean of both orientations.

The next assay addresses T29, 4H2985-AA.
T29 chain: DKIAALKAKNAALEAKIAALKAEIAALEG
Briefly: two-hybrid library CCmax. To be noted: mean of both orientations.

Another assay addresses T30, 4H3134-AA.
T30 chain: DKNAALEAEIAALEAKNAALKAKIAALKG
Put plainly: two-hybrid library CCmax. The settings on record: mean of both orientations.

Another assay has as its target T31, 4H3409-AA.
T31 chain: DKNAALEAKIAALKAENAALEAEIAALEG
Briefly: two-hybrid library CCmax. To be noted: mean of both orientations.

The next assay has as its target T32, 4H3625-AA.
T32 chain: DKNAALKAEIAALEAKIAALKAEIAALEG
Put plainly: two-hybrid library CCmax. To be noted: mean of both orientations.

For another assay, the target named is T33, 4H390-AA.
T33 chain: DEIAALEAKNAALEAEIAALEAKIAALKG
Briefly: two-hybrid library CCmax. To be noted: mean of both orientations.

The target in a further assay is T34, 4H3940-AA.
T34 chain: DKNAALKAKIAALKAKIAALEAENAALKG
Put plainly: two-hybrid library CCmax. To be noted: mean of both orientations.

Another assay addresses T35, 4H510-AA.
T35 chain: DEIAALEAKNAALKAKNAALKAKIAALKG
Briefly: two-hybrid library CCmax. To be noted: mean of both orientations.

A further assay has as its target T36, 4H775-AA.
T36 chain: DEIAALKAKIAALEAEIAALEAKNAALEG
Put plainly: two-hybrid library CCmax. The settings on record: mean of both orientations.

The target of a further assay is T37, 4H816-AA.
T37 chain: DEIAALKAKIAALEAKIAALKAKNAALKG
Put plainly: two-hybrid library CCmax. The settings on record: mean of both orientations.

Another assay concerns the target T38, 4H87-AA.
T38 chain: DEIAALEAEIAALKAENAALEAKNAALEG
Briefly: two-hybrid library CCmax. The settings on record: mean of both orientations.

Regarding KNAALKAENAALEYKIAALKAKIAALKG [O10], the interaction score with O10 is -2.67; in the assay with O11, -2.65; with O12, -2.82; in the assay with O13, -2.76; with O14, -2.57; with O15, -2.76. The interaction score was -2.56 with O16; -1.28 in the assay with O2; -2.6 with O3; -2.63 with O4; -1.82 with O5; -2.76 in the assay with O6. Besides, the interaction score with O7 was -2.72; in the assay with O8 it was -2.5; with O9, 1.47.

As for DEIAALEAEIAALKAKNAALKAEIAALEG [4H121-AA], the interaction score with 4H121-AA was 0.829; with 4H1350-AA, 0.484; in the assay with 4H1710-AA, 0.228; in the assay with 4H1985-AA it was -1.39; with 4H2187-AA it was -0.0331; with 4H233-AA, -0.289. In addition, the interaction score with 4H2512-AA was -1.66; with 4H2646-AA, 2.21; with 4H2687-AA, -0.303; with 4H2705-AA, 0.603; in the assay with 4H2758-AA, 0.775; in the assay with 4H278-AA, 2.13. Further, the interaction score in the assay with 4H2873-AA was 0.239; in the assay with 4H2985-AA, 0.209; with 4H3134-AA, 0.777; with 4H3409-AA, 0.672; in the assay with 4H3625-AA, -0.876; with 4H390-AA, 1.2. The interaction score with 4H3940-AA was -0.784; with 4H510-AA, -1.47; with 4H775-AA, -0.904; with 4H816-AA, -0.458; with 4H87-AA it was 0.81.

Values taken from paper PMC10397247.
